Source: PMC3338619, “Ligand Binding Study of Human PEBP1/RKIP: Interaction with Nucleotides and Raf-1 Peptides Evidenced by NMR and Mass Spectrometry” (PLoS ONE, 2012)
Square brackets hold non-standard residues; d marks the D form. Ends that are not written are not given here. pY = N[C@@H](Cc1ccc(OP(=O)(O)O)cc1)C(=O)O; pS = N[C@@H](COP(=O)(O)O)C(=O)O

Tests used:
[1] = target: T1, Human Phosphatidylethanolamine binding protein 1 (hPEBP1) (human, UniProt P30086 1-187); experiment: native MS; hPEBP1 incubated with a range of peptide concentrations, bound protein fraction measured by ESI-MS; ammonium acetate 20 mM, pH 6.6, 20°C; settings: both partners purified
T1 construct: the NMR assignment counts 187 residues in all, from Met1 to Lys187; The NMR samples were uniformly 15N-labelled; also called RKIP; source: E. coli BL21 (DE3), pET31b, purified (anion exchange, cation exchange); 15N-labelled for NMR, non-labelled recombinant for mass spectrometry
T1 sequence (P30086 whole entry): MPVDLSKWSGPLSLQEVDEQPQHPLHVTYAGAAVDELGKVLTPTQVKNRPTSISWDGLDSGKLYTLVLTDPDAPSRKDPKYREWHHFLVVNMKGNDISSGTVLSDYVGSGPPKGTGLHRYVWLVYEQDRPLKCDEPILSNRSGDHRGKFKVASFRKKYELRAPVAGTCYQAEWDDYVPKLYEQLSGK

[2] = target: T1, Human Phosphatidylethanolamine binding …; experiment: native MS; hPEBP1 incubated with a range of peptide concentrations, bound protein fraction measured by ESI-MS; ammonium bicarbonate (ABC), pH 7.4, 25°C; settings: both partners purified

B1: tri-phosphorylated Raf-1 peptide (residues 331-349) (peptide)
peptide: RPRGQRD[pS][pS]Y[pY]WEIEASEV
notes: Raf-1 N-region, residues 331-349; three phospho-amino acids at Ser338, Ser339 and Tyr341; also called 3P; Raf-1 peptide; Raf-1 peptide in tri-phosphorylated form; source: synthetic peptide (solid-phase, Fmoc strategy)
[1]
  Kd: 45 ± 12 µM
[2]
  Kd: 11 ± 3 µM
